Data on six molecules can be found in US20240150466A1 (DYNAMICURE BIOTECHNOLOGY, published 2024).

Where two headings read alike, the source gives them in different places. A value given as a limit tells only on which side of the number the result lay.

Assay [1] has as its target T1, human IGFBP7 displayed on HEK293T cells (human, UniProt Q16270 27-282).
T1 construct: domain: CD80 transmembrane domain; signal peptide stated as residues 1-26; also called hIGFBP7; hIGFBP7-HEK cells; not shown: linker; CD80 transmembrane domain
T1 sequence: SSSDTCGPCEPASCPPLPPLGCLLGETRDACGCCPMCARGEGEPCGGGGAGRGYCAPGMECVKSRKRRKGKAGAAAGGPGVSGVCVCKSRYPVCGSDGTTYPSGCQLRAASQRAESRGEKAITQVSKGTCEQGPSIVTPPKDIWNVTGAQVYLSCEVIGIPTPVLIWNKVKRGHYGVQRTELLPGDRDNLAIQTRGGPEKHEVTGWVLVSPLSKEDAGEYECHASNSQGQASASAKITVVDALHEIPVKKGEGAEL
As to the kind of experiment: flow cytometry on human IGFBP7 displaying HEK293T cells, nanobody 10 ug/ml, APC anti-HIS detection. On the procedure:
(§1) Human IGFBP7 and mouse IGFBP7 displaying HEK293T cells were detached by incubation with TrypLE reagents (Thermos Fisher), which preserves the integrity of IGFBP7 on the cell surface. Then the cells were incubated with anti-IGFBP7 nanobodies at 10 μg/ml for 30 minutes in 4° C. After washing by FACS buffer, the cells were incubated with APC conjugated anti-HIS antibodies (Biolegend) for 30 minutes in 4° C. After washing by FACS buffer twice, the samples were acquired in NovoCyte Flow Cytometer and analyzed by NovoExpress software.

Assay [2] deals with T2, cynomolgus IGFBP7 recombinant protein (cynomolgus).
T2 chain: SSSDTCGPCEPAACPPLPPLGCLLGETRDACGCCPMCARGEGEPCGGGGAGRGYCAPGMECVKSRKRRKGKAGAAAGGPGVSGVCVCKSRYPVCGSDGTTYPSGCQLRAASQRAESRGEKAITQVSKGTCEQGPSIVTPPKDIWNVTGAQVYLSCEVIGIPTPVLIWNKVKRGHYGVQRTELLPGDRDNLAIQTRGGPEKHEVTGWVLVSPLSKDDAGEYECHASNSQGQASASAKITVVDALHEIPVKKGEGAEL
Put plainly: BLI. (Biolayer interferometry detects binding as a change in optical thickness at a sensor tip.)

For assay [3], the target named is T3, mouse IGFBP7 recombinant protein (mouse, UniProt Q61581 26-281, biotinylated with EZ-LINK NHS-PEG4 biotin in the BLI assays (sites not given)).
T3 chain: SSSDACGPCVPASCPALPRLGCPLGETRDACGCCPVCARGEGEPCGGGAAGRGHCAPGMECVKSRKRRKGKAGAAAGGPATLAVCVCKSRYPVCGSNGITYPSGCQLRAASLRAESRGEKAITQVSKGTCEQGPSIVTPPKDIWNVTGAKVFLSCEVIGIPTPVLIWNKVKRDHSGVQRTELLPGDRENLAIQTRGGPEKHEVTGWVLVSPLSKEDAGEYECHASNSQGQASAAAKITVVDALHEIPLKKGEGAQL
Put plainly: BLI.

Assay [4] addresses T4, human IGFBP7 recombinant protein (UniProt Q16270 27-282, biotinylated with EZ-LINK NHS-PEG4 biotin in the BLI assays (sites not given)).
T4 chain: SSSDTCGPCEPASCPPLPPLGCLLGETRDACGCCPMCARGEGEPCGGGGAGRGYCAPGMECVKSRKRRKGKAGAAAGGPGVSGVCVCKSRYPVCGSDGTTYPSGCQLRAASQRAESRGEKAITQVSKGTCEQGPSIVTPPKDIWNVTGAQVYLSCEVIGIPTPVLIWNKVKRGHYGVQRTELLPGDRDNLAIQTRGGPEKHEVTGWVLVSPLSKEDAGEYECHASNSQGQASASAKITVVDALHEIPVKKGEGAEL
Put plainly: BLI.

In assay [5] the target is T3, mouse IGFBP7 recombinant protein. Put plainly: BLI.
Assay [6] has as its target T4, human IGFBP7 recombinant protein. As to the kind of experiment: BLI.
Assay [7] has as its target T3, mouse IGFBP7 recombinant protein. Put plainly: BLI.
Assay [8] deals with T4, human IGFBP7 recombinant protein. Put plainly: BLI.
The target in assay [9] is T5, human IGFBP7 recombinant protein (human, UniProt Q16270 27-282, biotinylated with EZ-LINK NHS-PEG4 biotin in the BLI assays (sites not given)).
T5 construct: Soluble protein used for ELISA coating and, biotinylated, on streptavidin biosensors (Octet); also called hIGFBP7; biotinylated IGFBP7 protein
T5 sequence: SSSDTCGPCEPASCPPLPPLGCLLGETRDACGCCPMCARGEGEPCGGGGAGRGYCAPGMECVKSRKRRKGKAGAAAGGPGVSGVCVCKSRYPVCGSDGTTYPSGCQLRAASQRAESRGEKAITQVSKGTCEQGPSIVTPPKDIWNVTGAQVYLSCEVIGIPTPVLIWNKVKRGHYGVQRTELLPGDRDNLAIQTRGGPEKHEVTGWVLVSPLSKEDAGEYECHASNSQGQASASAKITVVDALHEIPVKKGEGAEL
Put plainly: BLI (Octet QKe), biotinylated IGFBP7 on streptavidin biosensors (FIG. 9). The protocol: (§2) The binding affinity of anti-IGFBP7 nanobody Fc-fusion constructs (e.g., VHH-Fc-fusion constructs) were determined with bio-layer interferometry (BLI) using Octet QKe (Fortebio). Human, mouse, and cynomolgus IGFBP7 were biotinylated using EZ-LINK NHS-PEG4 biotin (Thermo Fisher Scientific). Streptavidin biosensors (ForteBio) were used to load biotinylated IGFBP7 protein (300 seconds in 5 μg/mL). Baseline was stabilized for 60 seconds in 1× kinetics buffer (ForteBio) before anti-IGFBP7 Fc-fucion proteins (serial dilution) were allowed to associate for 300 seconds with captured hIGFBP7 or mIGFBP7. Then the sensors were dissociated in 1× kinetics buffer for 600 seconds. Data analysis was performed on ForteBio Data Analysis HT 11.1 software.

In assay [10] the target is T6, mouse IGFBP7 recombinant protein (mouse, UniProt Q61581 26-281, limits assumed, biotinylated with EZ-LINK NHS-PEG4 biotin in the BLI assays (sites not given)).
T6 construct: Soluble protein in ELISA and BLI; also called mIGFBP7
T6 sequence (looked up): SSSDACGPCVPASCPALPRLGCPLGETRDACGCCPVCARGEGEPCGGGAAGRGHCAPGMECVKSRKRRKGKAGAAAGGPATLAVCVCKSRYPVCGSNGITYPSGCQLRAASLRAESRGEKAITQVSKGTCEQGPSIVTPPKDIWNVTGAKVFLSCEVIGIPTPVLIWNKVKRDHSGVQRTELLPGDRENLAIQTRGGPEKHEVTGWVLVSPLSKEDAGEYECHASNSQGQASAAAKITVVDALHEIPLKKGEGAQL
Put plainly: BLI (Octet QKe), biotinylated IGFBP7 on streptavidin biosensors (FIG. 10). The protocol: as §2

Assay [11] concerns the target T5, human IGFBP7 recombinant protein. As to the kind of experiment: ELISA.
Assay [12] concerns the target T6, mouse IGFBP7 recombinant protein. As to the kind of experiment: ELISA. In general terms: ELISA stands for enzyme-linked immunosorbent assay.
Assay [13] concerns the target T7, mouse IGFBP7 displayed on cells (HEK293T or CHO-K1) (mouse, UniProt Q61581 26-281).
T7 construct: whole, on cells;domain: CD80 transmembrane domain; also called mIGFBP7; mIGFBP7-HEK cells; not shown: linker; CD80 transmembrane domain
T7 sequence (looked up): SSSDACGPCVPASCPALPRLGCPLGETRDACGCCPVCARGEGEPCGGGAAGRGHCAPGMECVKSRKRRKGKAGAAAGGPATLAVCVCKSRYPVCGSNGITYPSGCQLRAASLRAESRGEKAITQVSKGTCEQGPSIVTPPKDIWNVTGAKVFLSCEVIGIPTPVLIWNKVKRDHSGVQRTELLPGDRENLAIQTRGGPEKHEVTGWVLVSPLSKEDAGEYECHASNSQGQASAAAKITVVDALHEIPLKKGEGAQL
As to the kind of experiment: flow cytometry on mouse IGFBP7 displaying HEK293T cells, nanobody 10 ug/ml, APC anti-HIS detection. On the procedure: as §1

In assay [14] the target is T8, His-tagged human IGFBP7 recombinant protein (human, UniProt Q16270 27-282).
T8 construct: not shown: His tag
T8 sequence: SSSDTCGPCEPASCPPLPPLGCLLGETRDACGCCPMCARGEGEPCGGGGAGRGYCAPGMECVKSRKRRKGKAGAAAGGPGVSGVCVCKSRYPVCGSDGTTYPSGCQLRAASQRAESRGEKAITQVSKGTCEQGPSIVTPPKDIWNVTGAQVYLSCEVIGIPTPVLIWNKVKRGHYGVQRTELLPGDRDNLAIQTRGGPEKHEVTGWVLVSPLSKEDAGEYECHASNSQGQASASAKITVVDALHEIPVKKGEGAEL
Put plainly: flow cytometry blockade assay: nanobody 50 ug/mL pre-incubated with His-tagged human IGFBP7 1 ug/mL, then human CD93 CHO cells (FIG. 14). On the procedure: Anti-IGFBP7 nanobodies and nanobody-Fc fusions (50 μg/mL) generated in previous examples was incubated with His-tagged human IGFBP7 recombinant protein (1 μg/mL) for 30 minutes in 4° C. Human CD93 expressing CHO cells (1×10⁵ per well) were treated the mixture for 30 minutes at 4° C. Then the cells were washed with FACS buffer and incubated with anti-IGFBP7 monoclonal rabbit antibody (Sino Biological Inc, Catalog #13100-R003) at 1 μg/mL for 30 minutes in 4° C. After incubation, the cells were washed with FACS buffer and incubated with PE-conjugated anti-rabbit IgG antibody ([…]) for 30 minutes in 4° C. After washing with FACS buffer twice, the samples were analyzed and data acquired in NovoCyte Flow.

A word on the Kd: it is the concentration at which binding is half-saturated.

B1: anti-IGFBP7 nanobody F12 (VHH)
VHH: VQLQESGGGLVQPGGSLRLSCAASGFTFSINTYLWYRQPPGKQREFVAAITSGGSINYADSVKGRFTISRDNAKKTVYLQMNSLKPEDTAVYVCNIKAHPNPWGFDNDYWGQGTQVTVSS
notes: Llama nanobody expressed in E. coli as His6-tagged protein; not shown: His6 tag
On to B1, for which, in assay [1], the binding result was “binds”.

B2: bispecific anti-IGFBP7 nanobody Fc-fusion construct A1D4-mIgG2a (bispecific antibody)
chain: VQLQESGGGLVQAGGSLRLSCAASGSLFAIDKWGWYRQVAGNERELVAWRYSPVSINYGDSVKGRFTVSGDSSRKRVYLQMNSLKPDDTAVYRCAAVISGAWYWGQGTQVTVSSVQLQESGGGLVQTGGSLRLSCAASGRSFTFSSYAMGWFRHAPGKEREFLTAITWSGDYTYYTDSVKGRSTISRDNAKNTVYLQLNNLKPEDTAVYYCAAKFSQVSAFFATVSEYEYWGQGTQVTVSS
Take B2: the dissociation constant Kd in [2] is 0.939 nM; in [3] it was 1.07 nM; in assay [4] it was 0.902 nM; in assay [5] it was 1.07 nM; in assay [6], 0.902 nM.

B3: D4-mIgG2a nanobody Fc-fusion (Fc fusion)
chain: VQLQESGGGLVQTGGSLRLSCAASGRSFTFSSYAMGWFRHAPGKEREFLTAITWSGDYTYYTDSVKGRSTISRDNAKNTVYLQLNNLKPEDTAVYYCAAKFSQVSAFFATVSEYEYWGQGTQVTVSS
notes: VHH fused with mIgG2a Fc fragment, expressed in Expi293 cells; also called monospecific D4-mIgG2a; not shown: mouse IgG2a Fc fragment (mIgG2a Fc)
B3: the Kd in assay [2] came to 1.84 nM; in [3], 10.2 nM; in [4] it was 1.22 nM; in assay [7], 12.1 nM; in [5] it was 10.2 nM; in [6], 1.22 nM. In assay [8], the Kd was 1.16 nM. Moreover, the binding result in assay [9] and in assay [10] was “binds” each time.

B4: anti-IGFBP7 nanobody D04 (VHH)
VHH: VQLQESGGGLVQTGGSLRLSCAASGRSFTFSSYAMGWFRHAPGKEREFLTAITWSGDYTYYTDSVKGRSTISRDNAKNTVYLQLNNLKPEDTAVYYCAAKFSQVSAFFATVSEYEYWGQGTQVTVSS
notes: Llama nanobody expressed in E. coli as His6-tagged protein; also called D4; D4 VHH; not shown: His6 tag
Take B4: the binding result in assay [11], in assay [12], in [1] and in [13] was “binds” throughout.

B5: A11 mIgG2a (antibody, V domains shown)
VH: VQLQESEGGWSGGGSGSGDFDYEKMANANNGAMTDNADAGKQREFVAAITSGGSINYADSVKGRFTISRDNTKKTVYLQMNSLKPEDTAVYVCNIKAHPNPWGFDNDYWGQGTQVTVSS
On to B5, for which the figures for the Kd in [7] and in assay [8] were 0.0177 nM and 0.0129 nM, respectively.

B6: anti-IGFBP7 nanobody A07 (VHH)
VHH: VQLQESEGGWSGGGSGSGDFGYDKMANAINGAMTDNADAGKQREFVAAITSGGSINYADSVKGRFTISTDNAKKTVYLQMNSLKPEDTAVYVCNIKAHPNPWGFDNDYWGQGTPATASS
notes: Llama nanobody expressed in E. coli as His6-tagged protein; also called A7; not shown: His6 tag
B6: the “percent blocking of the CD93-IGFBP7 interaction” value in assay [14] was not below 50%.
